Legend:
JNK (Homo sapiens) = JNK (Homo sapiens) (UniProt P45983); details: cited from earlier work
GST-JNK1α1 = GST-JNK1α1 (UniProt P45983); assay: pull-down; GST-JNK isoform (2 μg) or unfused GST on glutathione beads, rotated 1 h at +4 °C with cleared 293T lysate holding the luciferase fusion (7,000 units), low-salt buffer with 0.5% Igepal, washed three times; luciferase on beads as per cent of input

Row | ratio of pulldown, lit-state mutant against dark-state mutant (GST-JNK1α1) [fold] | Substance | Kd (JNK (Homo sapiens)) [nM]
1 | – | JIP peptide (from UniProt Q9UQF2) | 800
2 | 30 | luciferase-fused OptoJNKi.lsm (AsLOV2Jα I539E-JIP11) (from UniProt Q9UQF2 157-167) (designed binder) | –

— paper PMC5437309
